Reference: patent US20250215091A1, “Anti-GAL3 Antibodies and Compositions” (Les Laboratoires Servier, priority 2022, published 2025)

What was measured:
[1] = test system: human Gal3 full-length (Hu-Gal3-FL) and CRD domain (Hu-Gal3-CRD); assay: IgG cross-reactivity ELISA on human Gal3; assay type: binding; conditions: purified IgGs 15-20 μg/mL; FIG. 3
Experimental: (§1) Anti-Gal3 antibodies human/mouse cross-reactivity was tested by ELISA on human Gal3 full-length (Hu-Gal3-FL) and CRD domain (Hu-Gal3-CRD), and on murine Gal3 (m-Gal3-FL).
(§2) Hu-Gal3-FL, Hu-Gal3-CRD and m-Gal3-FL were immobilized at 3 μg/mL via their histidine tag on functionalized microplates. Purified IgGs were added into the wells (15-20 μg/mL final concentration) and detected with an anti-Fab.HRP antibody. A control rabbit antibody directed against Hu-Gal3 (Abcam ab53082 reference) was used at 5 μg/mL as antigen-coating positive control and detected with an anti-rabbit.HRP secondary antibody (7074S-Cell Signaling reference).

murine Gal3 (m-Gal3-FL) = target: T1, murine Gal3 (m-Gal3-FL) (Mus musculus, UniProt P16110); assay: IgG cross-reactivity ELISA on murine Gal3; assay type: binding; conditions: purified IgGs 15-20 μg/mL; FIG. 3
T1 construct: Determination of Kd values on human and mouse full-length Gal3; purchased Novalix
Experimental: as §1, §2

Hu-Gal3-FL = target: T2, Hu-Gal3-FL (Homo sapiens, UniProt P17931); assay: ELISA dose-response EC50 on human Gal3; conditions: ELISA binding on Hu-Gal3-FL
T2 construct: made in house
Experimental: (§3) To determine the half maximal effective concentration (EC50) of the antibodies, ELISA dose-response experiments were performed on Hu-Gal3-FL and on m-Gal3-FL.
(§4) Hu-Gal3-FL and m-Gal3-FL were immobilized at 3 μg/mL through their His-tag on functionalized microplates as before. A 3.3-fold serial dilution was carried-out with the purified IgGs, added to the wells containing immobilized Hu-Gal3-FL or m-Gal3-FL and detected with an anti-Fab.HRP antibody.
(§5) Human/mouse Gal3 EC50 ratio were estimated according to EC50 values (sigmoidal dose-response equation: Y=Bottom+X*(Top−Bottom)/(EC50+X)), a low ratio indicating a high cross-reactivity.

m-Gal3-FL = target: T3, m-Gal3-FL (Mus musculus, UniProt P16110); assay: ELISA dose-response EC50 on mouse Gal3; conditions: ELISA binding on m-Gal3-FL
T3 construct: made in house
Experimental: as §3, §4, §5

[2] = test system: murine model of HOCI-induced fibrosis; assay: HOCI-induced murine fibrosis model: skin thickness; assay type: in vivo, mice; conditions: first experiment
Experimental: (§6) In a first experiment, control mice (n=12) received a daily intradermal injection of 300 μL of sterile phosphate buffer saline (PBS) for 5 consecutive days per week, for a duration of 42 days. HOCI alone and HOCI with antibody (HOCI-antibody) treated mice (n=12 per group) received a daily intradermal injection of 300 μL of HOCI for 5 consecutive days per week, for a duration of 42 days. Antibody-treated mice also received a subcutaneous injection of 20 mg/kg antibody, starting at day minus one and every 5 days between day 5 and day 40. Each antibody was solubilized in sterile, endotoxin-free PBS before injection. In a second experiment, the same protocol was applied, except that duration of the study was 63 days and antibodies were given every 7 days starting at day minus 1 until day 62.
(§7) Mice that received daily injection of HOCI were also treated by intratracheal instillation of 0.5 mg/kg of TD139 compound (HOCI-TD139), a small molecule Gal3 inhibitor. In a first experiment, the administrations started from day 21 and the compound was given every 3 days until day 39. In a second experiment, the administrations started from day 20 and the compound was given every 3 days until day 62. TD139 was initially dissolved in 100% DMSO then diluted 50-fold in endotoxin-free PBS before administration.
The evolution of skin thickness was monitored by using an external caliper, every seven days until sacrifice.

[3] = test system: murine model of HOCI-induced fibrosis; assay: HOCI-induced murine fibrosis model: skin and lung collagen (Picrosirius red); assay type: in vivo, mice; conditions: first experiment
Experimental: as §6, §7
At the day of study termination of the first experiment (day 42), skin and lung samples were taken, formalin-fixed and processed to individual paraffin wax blocks. Sections of skin and lung were cut from the blocks and, after rehydration, stained with Picrosirius Red coloration according to the manufacturer's protocol. Subsequently, each slide was examined and remotely analyzed employing the web-based Image J software

plasma IL-6 = assay: HOCI-induced murine fibrosis model: plasma IL-6 (MSD); assay type: in vivo, mice; conditions: first experiment, day 42; vs HOCI group; FIG. 9
Experimental: as §6, §7
(§8) In the first experiment, a mixed effect model with repeated measurements was performed on Control group, HOCI treated group, HOCI-antibody- and HOCI-TD139-treated groups. The impact of HOCI administration on plasma IL-6 and IL-5 levels was evaluated compared to the control group. The impact of antibody and TD139 treatments was compared to the HOCI group (FIG. 9). IL-6 and IL-5 were quantified by using the MSD technology from Mesoscale.

plasma IL-5 = assay: HOCI-induced murine fibrosis model: plasma IL-5 (MSD); assay type: in vivo, mice; conditions: first experiment, day 42; vs HOCI group; FIG. 9
Experimental: as §6, §7, §8

plasma Gal3 = assay: HOCI-induced murine fibrosis model: plasma Gal3 (ELISA); assay type: in vivo, mice; conditions: first experiment, day 42; FIG. 10
Experimental: as §6, §7
In the first experiment, the plasma levels of Gal3 were measured at day minus 1 (before antibody administration) and at termination day (day 42) using a mouse Galectin-3 DuoSet ELISA kit (R&D Systems, DY1197) according to the manufacturer's instructions. Plasma samples were diluted 1:200 in order to fit with the dynamic range of the assay.

[4] = test system: murine model of bleomycin-induced fibrosis; assay: Bleomycin-induced murine lung fibrosis model: body weight and body weight metrics; assay type: in vivo, mice
Experimental: (§9) Control bleomycin mice named ‘Bleo’ received an administration of 1.65 mg/kg bleomycin by the oropharyngeal route on Day 1. […] Antibody-treated mice also received an administration of 1.65 mg/kg bleomycin by the oropharyngeal route on Day 1 and a subcutaneous injection of 20 mg/kg antibody, starting on day minus one and on days 4, 8, 12, 16 and 20. Each antibody was solubilized in sterile, endotoxin-free PBS before injection. Mice that received bleomycin were also treated by oropharyngeal administration of 0.5 mg/kg of TD139 compound (Bleo-TD139), a small molecule Gal3 inhibitor, starting on day 12 and every 2 days until day 20. TD139 was initially dissolved in 100% DMSO.
Mice were weighed daily. Their growth curves are represented on FIG. 12. Control mice had normal growth with a mean percent increase of 6.4% of their initial body weight measured on day minus 1.
Body weight metrics were assessed by using two parameters called Time to weight growth (TWG) and Time to baseline (TTB), shown on FIG. 13. Time to weight growth corresponds to the point of inflection when mice show an ascending growth curve and start to regain weight within the course of the experiment. Time to baseline corresponds to the number of days required for mice to recover their initial body weight (day minus 1). The median TWG was 10 days for the untreated bleomycin group. […] TD139 compound had no efficacy on this parameter (p-value 0.53).

[5] = test system: murine model of bleomycin-induced fibrosis; assay: Bleomycin-induced murine lung fibrosis model: Modified Ashcroft fibrosis score; assay type: in vivo, mice
Experimental: as §9
Mice were submitted for terminal euthanasia on day 21. The lungs were collected for histopathological examination and gravity inflation-fixed with 10% neutral buffered formalin (NBF) before being immersion fixed in NBF.
Sections were taken and then placed on three slides as indicated by the code numbers on FIG. 14.
Three longitudinal sections parallel to and bisecting the main stem bronchus were trimmed from the left lung and right caudal lung lobes and mounted in cassettes 01 and 02, respectively. The right cranial, middle and accessory lung lobes were sectioned longitudinally and mounted in cassette 03. All sections were stained with picrosirius red and scored in a blinded manner by a certified veterinary pathologist using the Modified Ashcroft fibrosis score (0-8), where “0” corresponds to “normality (no fibrosis) and “8” corresponds to the highest possible fibrosis score, as described by Hübner et al. (2008) but based on assessment across the whole section of lung.

rat model of ARDS [6] = assay: Rat ARDS model (LPS challenge): neutrophils counts in BALF; assay type: in vivo; conditions: antibodies 14 mg/kg x3 prior to LPS; dexamethasone 10 mg/kg oral; vs LPS group; FIG. 16
Experimental: (§10) Positive control rats received 3 doses of sterile phosphate buffer at day minus 11, minus 6 and minus 1 prior LPS challenge (0.25 mg/kg by subcutaneous route at day 1). Negative control rats received one oral dose of Dexamethasone at 10 mg/kg (dissolved in 0.5% carboxymethyl cellulose in deionized water) 2 hours prior LPS challenge (0.25 mg/kg by subcutaneous route at day 1). LPS (lipopolysaccharide) causes an acute inflammatory response, whereas dexamethasone has anti-inflammatory effects thus being the reference treatment in this model.
(§11) Antibody-treated rats received 3 doses of antibodies (14 mg/kg) at day minus 11, minus 6 and minus 1 prior to LPS challenge (0.25 mg/kg by subcutaneous route at day 1). Each antibody was solubilized in sterile PBS before injection.
(§12) Control rats of the experiment received 3 doses of sterile phosphate buffer at day minus 11, minus 6 and minus 1 without LPS challenge at day 1.
(§13) The impact of anti-Gal3 antibody treatment in LPS challenged rats were evaluated by quantification of neutrophils in Bronchoalveolar Lavage Fluid and compared to the positive control group (LPS challenge with PBS treatment) (FIG. 16). […] Neutrophils numeration levels were decreased after treatment with anti-inflammatory dexamethasone.

rat model of ARDS [7] = assay: Rat ARDS model (LPS challenge): total BALF protein (BCA assay); assay type: in vivo; conditions: antibodies 14 mg/kg x3 prior to LPS; dexamethasone 10 mg/kg oral; vs LPS group; FIG. 17
Experimental: as §10, §11, §12
as §13, with “proteins (by BCA assay)” for “neutrophils”, “BALF” for “Bronchoalveolar Lavage Fluid”, “17). The presence of protein in BALF reflects the damage to the air-blood barrier.” for “16).”, “Total BALF protein” for “Neutrophils”

plasma TNF alpha = assay: Rat ARDS model (LPS challenge): plasma TNF alpha (MSD); assay type: in vivo; conditions: 4 h following LPS challenge; vs LPS group; FIG. 18
Experimental: as §10, §11, §12
For all rats, plasma sampling was performed 4 h following LPS challenge.
The impact of anti-Gal3 antibody treatment in LPS challenged rats were evaluated on plasma cytokine levels, namely TNF alpha and KC-GRO cytokines, and compared to the positive control group (LPS challenge with PBS treatment) (respectively FIG. 18A and FIG. 18B). TNF alpha and KC-GRO were quantified by using the MSD technology from Mesoscale.

T2 sequence (P17931 whole entry): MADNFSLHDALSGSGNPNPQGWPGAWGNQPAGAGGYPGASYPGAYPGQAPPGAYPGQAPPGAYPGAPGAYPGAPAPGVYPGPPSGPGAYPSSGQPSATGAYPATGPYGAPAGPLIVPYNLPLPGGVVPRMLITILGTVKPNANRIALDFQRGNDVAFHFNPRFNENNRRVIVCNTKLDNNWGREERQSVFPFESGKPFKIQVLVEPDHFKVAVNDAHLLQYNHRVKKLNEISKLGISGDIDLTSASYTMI
T1 sequence (P16110 whole entry): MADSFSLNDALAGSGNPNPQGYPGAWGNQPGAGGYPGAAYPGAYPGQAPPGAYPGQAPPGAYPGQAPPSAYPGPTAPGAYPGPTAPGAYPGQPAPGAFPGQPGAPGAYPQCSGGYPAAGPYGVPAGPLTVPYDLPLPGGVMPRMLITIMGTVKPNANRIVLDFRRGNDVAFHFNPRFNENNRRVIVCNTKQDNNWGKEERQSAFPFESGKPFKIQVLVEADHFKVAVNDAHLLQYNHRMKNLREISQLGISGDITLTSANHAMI
T3 sequence (P16110 whole entry): as above
Chain of human Gal3 full-length (Hu-Gal3-FL) and CRD domain (Hu-Gal3-CRD) (P17931 118-250 limits assumed): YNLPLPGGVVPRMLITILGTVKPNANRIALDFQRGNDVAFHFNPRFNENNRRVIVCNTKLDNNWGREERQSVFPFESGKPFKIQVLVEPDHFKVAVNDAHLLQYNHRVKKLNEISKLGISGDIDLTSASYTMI

IgG binding to human Gal3 (Hu-Gal3-FL, Hu-Gal3-CRD) by ELISA [1]	hGal3 EC50 (Hu-Gal3-FL)	mGal3 EC50 (m-Gal3-FL)	Molecule	IgG binding to murine Gal3 (m-Gal3-FL) by ELISA (murine Gal3 (m-Gal3-FL))	HOCI-induced increase in skin thickness ([2]; 42 days, antibody 20 mg/kg s.c., TD139 0.5 mg/kg intratracheal, vs HOCI group, FIG. 7A)	day from which reduction of skin thickness was significant ([2]; sustained effect until day 42)	lung collagen levels ([3]; day 42, FIG. 8A)	skin collagen levels ([3]; day 42, vs HOCI group, FIG. 8B)	plasma IL-6 levels (plasma IL-6)	plasma IL-5 levels (plasma IL-5)	plasma Gal3 levels (plasma Gal3)	reduction of median Time to baseline (TTB) ([4]; median TTB 20 days for untreated bleomycin group, FIG. 13)	reduction of median Time to weight growth (TWG) ([4]; median TWG 10 days for untreated bleomycin group, FIG. 13)	mean percent weight increase on day 21 compared to day minus 1 ([4]; untreated bleomycin group +1.9%, control mice 6.4%)	frequency of animals with fibrosis score of 2 ([5]; day 21, 7.4% in untreated bleomycin group)	frequency of animals with fibrosis score of 3 ([5]; day 21, 43.2% for bleo group)	frequency of animals with fibrosis score of 4 ([5]; day 21, 44.4% in bleo group)	neutrophils counts in BALF (rat model of ARDS [6])	total BALF protein (rat model of ARDS [7])	TNF alpha plasma levels (plasma TNF alpha)
Lower binding signals	too high to be determined	too high to be determined	B12: anti-Gal3 monoclonal antibody, IgG1 format; VH SEQ ID NO 54, VL SEQ ID NO 55 (antibody, V domains shown, IgG1 constant region) VH: EVQLVESGGSLVKPGGSLRLSCAASGFTFSNDDMNWVRQAPGKGLEWISSIDGSSRSIYYADFVKGRFTISRDNAKNSLYLQMNSLRAEDTAVYYCVRSSGYSGGGMDVWGRGTLVTVSS VL: QSVLTQPASVSGSPGQSITISCAGTSSDVGGSYNVAWYQQHPGKAPKLMIYSDSYRPSGVSNRFSGSKSGNTASLTISGLQAEDEADYYCSSYTSNSARVFGGGTKLEIK	Lower binding signals	–	–	–	–	–	–	–	–	–	–	–	–	–	–	–	–
–	too high to be determined	too high to be determined	E12: anti-Gal3 monoclonal antibody, IgG1 format; VH SEQ ID NO 56, VL SEQ ID NO 57 (antibody, V domains shown) VH: EVQLVESGGSLVKPGGSLRLSCAASGFTFSNYAMNWVRQAPGKGLEWISSIYGSSRSIYYADFVKGRFTISRDNAKNSLYLQMNSLRAEDTAVYYCVRSNNAGMDVWGRGTLVTVSS VL: QSVLTQPASVSGSPGQSITISCAGTSSDVGGYYDVSWYQQHPGKAPKLMIYYDSYRPSGVSNRFSGSKSGNTASLTISGLQAEDEADYYCSSYTSYSTRVFGGGTKLEIK	much lower on the m-Gal3 than on the Hu-Gal3-FL and Hu-Gal3-CRD	–	–	–	–	–	–	–	–	–	–	–	–	–	–	–	–
–	–	–	D11: anti-Gal3 monoclonal antibody, IgG1 format; VH SEQ ID NO 40, VL SEQ ID NO 41 (antibody, V domains shown, IgG1 constant region) VH: EVQLVESGGSLVKPGGSLRLSCAASGFTFSNYNMNWVRQAPGKGLEWISSIYGSSRYIYYADFVKGRFTISRDNAKNSLYLQMNSLRAEDTAVYYCVRSSYGGMDVWGRGTLVTVSS VL: QSVLTQPASVSGSPGQSITISCAGTSSDVGGSYNVAWYQQHPGKAPKLMIYYDSYRPSGVSNRFSGSKSGNTASLTISGLQAEDEADYYCSSYTGYSTRVFGGGTKLEIK	–	significantly reduced	21 days	restored lung collagen levels to those of control mice	significantly reduced	significantly decreased the plasma IL-6 levels to values similar to those of control mice	decreased significantly	restored the plasma Gal3 levels to values similar to those of the control group	2.7 days	1.3 days	4.4%	17.8%	61.1%	20%	also decreased	also decreased	also decreased, displaying an intermediary profile
